Results from patent US20170224620A1 (Pfizer, published 2017).
Each block holds one binder with its values, some of them ahead of it. Bridges are numbered along the chain shown (N, C = ends). Primed or numbered codes have the meaning given here. DBCO′ = dibenzocyclooctyne

Legend:
[1] = target: T1, Fc tagged recombinant human EGFR (rhEGFR-Fc, R&D systems, Cat#344-ER-050) (human, UniProt P00533 25-645); assay: EGF competition ELISA, 10% nanoparticle conjugate
T1 construct: Bought protein; also called apo-EGFR; not shown: Fc tag

[2] = target: T1, Fc tagged recombinant human EGFR …; assay: EGF competition ELISA, 10% nanoparticle conjugate; remark: listed apart in the source
Procedure: An alanine scan was performed on the amino acids within the cyclic portion of the peptide structure to determine which amino acids were critical for binding. Each amino acid within the peptide was individually replaced with alanine. […] Subsequently, an alanine scan of the flanking amino acids on P₁₋₃ was performed.

[3] = target: T1, Fc tagged recombinant human EGFR …; assay: SPR
[4] = target: T2, EGF bound EGFR (rhEGFR-Fc with recombinant human EGF pre-injected in SPR or 50 nM EGF present in ELISA) (human, UniProt P00533 25-645; P01133 971-1023); assay: P2 competition ELISA: rhEGFR on the plate, 1 nM P2-Biotin dimer as tracer, 50 nM EGF; concentration on a ligand molar basis
T2 construct: Complex of m1 and m5 as target; also called EGFR in the presence of EGF; With EGF; not shown: Fc tag
From the text: (§1) An additional assay was developed to provide an orthogonal assay to SPR during the evaluation of the P₂ peptide analogs and nanoparticle conjugates.

[5] = target: T2, EGF bound EGFR (rhEGFR-Fc with …); assay: P2 competition ELISA, 1% ligand density NP
[6] = target: T2, EGF bound EGFR (rhEGFR-Fc with …); assay: P2 competition ELISA, 5% ligand density NP
[7] = target: T2, EGF bound EGFR (rhEGFR-Fc with …); assay: P2 competition ELISA, 5% nanoparticle conjugate
[8] = target: T2, EGF bound EGFR (rhEGFR-Fc with …); assay: P2 competition ELISA: rhEGFR on the plate, 1 nM P2-Biotin dimer as tracer, 50 nM EGF
From the text: as §1

[9] = target: Fc tagged recombinant human EGFR (rhEGFR-Fc, R&D systems, Cat#344-ER-050) (human) (UniProt P00533); assay: screening ELISA, peptide 100 µM against 0.7 nM biotin-EGF on coated rhEGFR

- IC50 [1]: 211 µg/mL
B1: 10% P1 nanoparticle (other)
peptide: Ac-SECFPLAPDWLSCILGGK(DBCO′)-NH2
modifications: disulfide 3-13; also: DBCO clicked to azide PLA-PEG nanoparticle, 10 mol %
notes: Multivalent nanoparticle conjugate; also called P1 conjugated to nanoparticle at 10 mol %; P1 NP

- IC50 [1]: 10.3 µg/mL
B2: 10% P1-3 nanoparticle (other)
peptide: Ac-SECFPAAPDWLSCILGGK(DBCO′)-NH2
modifications: disulfide 3-13; also: DBCO clicked to azide PLA-PEG nanoparticle, 10 mol %
notes: also called P1-3 NP; P1-3 (Leu6-Ala) conjugate

- 10% NP Relative IC50 (normalized to P1) [2]: ~0.3 ratio
Binder: Ac-SECAPLAPDWLSCILGGK(DBCO′)-NH2 (other, disulfide 3-13; also: DBCO clicked to azide PLA-PEG nanoparticle, 10 mol %) [10% P1-1 nanoparticle]

- 10% NP Relative IC50 (normalized to P1) [2]: 1 ratio
Binder: Ac-AECFPAAPDWLSCILGGK(DBCO′)-NH2 (other, disulfide 3-13; also: DBCO clicked to azide PLA-PEG nanoparticle, 10 mol %) [10% P1-3-1 nanoparticle]

- binding result [3]: no binding
Binder: {DBCO′}-SECFPAAPDWLSCIL-NH2 (disulfide 3-13 (inferred), also called Alternate DBCO placement) [P1-3-14]

- binding result [3]: no binding
Binder: Ac-CFPAAPDWLSCGGK(DBCO′)-NH2 (disulfide 1-11 (inferred)) [P1-3-7]

- IC50 (read off the curve) [4]: ~0.03 µM
- IC50 [5]: 81 µg/mL
Binder: Ac-DPCTWEVWGRECLQGGK-NH2 (other, disulfide 3-12; not fully specified (residue 17), also called P2 1% Ligand Density NP) [1% P2 nanoparticle]

- binding result [3]: no binding
Binder: Ac-CFPAAPDWLSCGGK(DBCO′)-NH2 (disulfide 1-11 (inferred)) [P1-3-6]

- IC50 [6]: 4.3 µg/mL
- IC50 (read off the curve) [4]: ~0.009 µM
- IC50 [7]: 6 µg/mL
B3: 5% P2 nanoparticle (other)
peptide: Ac-DPCTWEVWGRECLQGGK-NH2
modifications: disulfide 3-12; not fully specified (residue 17)
notes: also called P2 5% Ligand Density NP; parent P2 conjugated nanoparticle (5%)

- IC50 (read off the curve) [8]: ~0.2 µM
B4: P2 (Ac-DPCTWEVWGRECLQGGK(PEG4-DBCO)-CONH2) (peptide)
peptide: Ac-DPCTWEVWGRECLQGGK(PEG4‑DBCO)-NH2
modifications: disulfide 3-12
notes: also called P2 DBCO conjugate; parent peptide (P2)

- % inhibition of EGF [9]: 62.5%
Binder: H-DGYCLHDGVC-NH2 (cysteine pairing not given here) [EGFf-3]
